# Legend:
# [1] = target: human CD40 expressed on HT1080-CD40 transfectants (human) (UniProt P25942)
# [2] = target: T1, CD40-GpL, the CD40 ectodomain with a C-terminal Gaussia princeps luciferase (GpL) reporter domain (Homo sapiens, UniProt P25942); assay: plate binding assay with Gaussia luciferase (GpL) fusion proteins; plates coated with 1 µg/ml protein G, loaded with anti-CD40 antibodies (1 µg/ml, in medium); GpL-linked CD40 ectodomain and its deletion mutants added for 1 hour at 37°C; TNFR2(ed)-GpL values subtracted as unspecific binding; settings: partners not purified
# T1 construct: extracellular domain of CD40 with its cysteine-rich domains (CRDs); also called CD40(ed)-GpL; source: HEK293T, transfected, cell culture supernatant; not shown: Gaussia princeps luciferase (GpL), C-terminal, kept
# T1 sequence (P25942 21-193): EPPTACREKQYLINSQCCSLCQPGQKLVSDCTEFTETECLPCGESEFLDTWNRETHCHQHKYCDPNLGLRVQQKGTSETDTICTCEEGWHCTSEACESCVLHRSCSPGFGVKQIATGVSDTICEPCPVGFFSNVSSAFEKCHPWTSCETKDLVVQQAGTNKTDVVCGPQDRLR
# human CD40 expressed on HT1080-CD40 transfectants (human), sequence (P25942 21-277): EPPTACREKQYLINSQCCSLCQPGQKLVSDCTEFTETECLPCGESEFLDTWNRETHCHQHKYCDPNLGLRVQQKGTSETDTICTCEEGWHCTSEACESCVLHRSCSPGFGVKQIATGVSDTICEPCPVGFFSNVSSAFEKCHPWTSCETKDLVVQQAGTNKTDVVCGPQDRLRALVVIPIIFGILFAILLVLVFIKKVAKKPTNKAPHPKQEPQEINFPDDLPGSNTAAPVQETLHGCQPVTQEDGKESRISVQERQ
p100 processing and TRAF1 induction (western blot) in U2OS cells; concentration from which the response starts [1],binding result [2],Molecule
< 100 ng/mL,,APX005M-IgG1 (N297A-RGY) (antibody)
,binds,"G28.5-IgG1 (antibody, V domains shown, VH of G28.5; constant region of the IgG1 heavy chain; IgG1; source: HEK293T, transfected, cell culture supernatant) VH: DIQLQQSGPGLVKPSQSLSLTCSVTGYSITTNYNWNWIRQFPGNKLEWMGYIRYDGTSEYTPSLKNRVSITRDTSMNQFFLRLTSVTPEDTATYYCARLDYWGQGTLVTVSS VL: DIVMTQNPLSLPVSLGDEASISCRSSQSLENSNGNTFLNWFFQKPGQSPQLLIYRVSNRFSGVPDRFSGSGSGTDFTLKISRVEAEDLGVYFCLQVTHVPYTFGGGTTLEIK"
,binds,"APX005M-IgG1 (antibody, V domains shown, VH of APX005M; constant region of the IgG1 heavy chain; IgG1; also called Sotigalimab; anti-CD40(APX); source: HEK293T, transfected, cell culture supernatant) VH: QSLEESGGDLVKPGASLTLTCTASGFSFSSTYVCWVRQAPGKGLEWIACIYTGDGTNYSASWAKGRFTISKPSSTTVTLQMTSLTPADTATYFCARPDITYGFAINFWGPGTLVTVSS VL: DIVMTQTPSSASEPVGGTVTIKCQASQSISSRLAWYQQKPGQPPKLLIYRASTLASGVPSRFKGSGSGTEFTLTISDLECADAATYYCQCTGYGISWPIGGGTEVVVK"
,binds,"ADC-1013-IgG1 (antibody, V domains shown, constant region of the IgG1 heavy chain; IgG1; also called Mitazalimab; source: HEK293T, transfected, cell culture supernatant) VH: EVQLLESGGGLVQPGGSLRLSCAASGFTFSTYGMHWVRQAPGKGLEWLSYISGGSSYIFYADSVRGRFTISRDNSENALYLQMNSLRAEDTAVYYCARILRGGSGMDLWGQGTLVTVSS VL: QSVLTQPPSASGTPGQRVTISCTGSSSNIGAGYNVYWYQQLPGTAPKLLIYGNINRPSGVPDRFSGSKSGTSASLAISGLRSEDEADYYCAAWDKSISGLVFGGGTKLTVL"
